Measurements published in patent publication US20250340598A1.
Values joined by “and” are separate entries in the source; they are usually repeats but may differ in a detail not shown here. Equal values may be shown once.

Substance: CH01 UCA (antibody)
- IC50, neutralization (CAP256SU_UCA_OPT): 1.92 µg/mL

Substance: CAP256 VRC26 UCA (antibody)
- IC50, neutralization (CAP256SU (HIV-1)): 35 µg/mL
- fold reduction of neutralization reactivity (CAP256SU_UCA_OPT_3.0): 3 fold and 4 fold

Substance: PG16 RUA (antibody)
- fold improvement of neutralization sensitivity (CH505_V2UCAOPT_v3.0): 100 fold
- fold enhancement of neutralization sensitivity (CAM13K+K169R (SIVcpz)): 10 fold
- fold enhancement of neutralization sensitivity (CAM13RRK): 50 fold

Substance: PCT64 LMCA (antibody)
- IC50, pseudovirus neutralization (CH505 UCA_OPT2+N332): 105 µg/mL
- 50% neutralization, pseudovirus neutralization (CH505 UCA_OPT_2+H130D): 100 µg/mL
